In publication PMC9274624:

Key:
[1] = biological target: bovine ACE2 extracellular domain (residues 1-740) fused with the Fc domain of mouse IgG (bovine) (UniProt Q58DD0); assay: SPR
[2] = biological target: cat ACE2 extracellular domain (residues 1-740) fused with the Fc domain of mouse IgG (cat) (UniProt Q56H28); assay: SPR
UniProt Q56H28, sequence (Q56H28 18-740): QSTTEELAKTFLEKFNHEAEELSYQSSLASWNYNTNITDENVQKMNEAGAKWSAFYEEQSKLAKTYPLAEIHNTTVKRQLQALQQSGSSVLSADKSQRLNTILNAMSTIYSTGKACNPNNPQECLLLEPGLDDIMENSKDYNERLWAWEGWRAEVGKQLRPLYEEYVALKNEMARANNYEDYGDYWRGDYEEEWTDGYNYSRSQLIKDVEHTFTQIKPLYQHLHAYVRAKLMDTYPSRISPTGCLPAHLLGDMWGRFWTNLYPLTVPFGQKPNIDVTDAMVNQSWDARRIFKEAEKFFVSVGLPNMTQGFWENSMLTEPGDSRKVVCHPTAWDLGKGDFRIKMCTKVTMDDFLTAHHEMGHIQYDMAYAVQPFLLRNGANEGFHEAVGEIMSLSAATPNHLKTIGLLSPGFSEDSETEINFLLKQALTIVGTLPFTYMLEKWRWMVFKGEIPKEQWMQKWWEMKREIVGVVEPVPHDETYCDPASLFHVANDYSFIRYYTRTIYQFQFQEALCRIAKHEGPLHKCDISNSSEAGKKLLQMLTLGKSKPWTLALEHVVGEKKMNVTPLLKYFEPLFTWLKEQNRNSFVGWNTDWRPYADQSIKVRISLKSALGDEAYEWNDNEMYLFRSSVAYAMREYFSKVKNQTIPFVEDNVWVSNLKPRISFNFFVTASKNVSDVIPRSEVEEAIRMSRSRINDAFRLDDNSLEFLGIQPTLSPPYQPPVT

UniProt Q58DD0, sequence (Q58DD0 18-740): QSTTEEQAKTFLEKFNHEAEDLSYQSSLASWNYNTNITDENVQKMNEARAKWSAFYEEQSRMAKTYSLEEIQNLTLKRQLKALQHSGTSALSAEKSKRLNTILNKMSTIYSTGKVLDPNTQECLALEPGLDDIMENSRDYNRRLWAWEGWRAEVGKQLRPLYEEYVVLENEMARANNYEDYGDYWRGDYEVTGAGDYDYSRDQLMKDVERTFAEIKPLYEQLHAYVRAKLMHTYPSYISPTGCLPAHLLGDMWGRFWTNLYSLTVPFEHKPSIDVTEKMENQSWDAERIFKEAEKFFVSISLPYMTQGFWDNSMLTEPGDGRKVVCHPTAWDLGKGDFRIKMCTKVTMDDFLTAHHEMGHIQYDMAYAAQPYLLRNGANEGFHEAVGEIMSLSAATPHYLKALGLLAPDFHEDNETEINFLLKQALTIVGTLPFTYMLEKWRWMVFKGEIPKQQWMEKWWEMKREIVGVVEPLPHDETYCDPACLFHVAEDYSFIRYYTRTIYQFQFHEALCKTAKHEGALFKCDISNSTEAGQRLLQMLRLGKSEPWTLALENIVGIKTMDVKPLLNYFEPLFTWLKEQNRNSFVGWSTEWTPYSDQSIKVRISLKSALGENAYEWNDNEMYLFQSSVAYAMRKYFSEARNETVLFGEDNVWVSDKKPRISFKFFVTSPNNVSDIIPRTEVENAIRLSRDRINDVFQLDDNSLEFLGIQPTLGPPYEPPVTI

Substance “SARS-CoV-2 Delta RBD (residues 319-541) (from UniProt P0DTC2 319-541) (domain or fragment)” has a Kd [1] of 71.3 nM and a Kd [2] of 53.4 nM.
